The RNAGym collection of RNA variant scans (doi:10.7554/elife.80360)

B1: Hairpin Ribozyme (parent)
chain: GUCCUCUUUCACGUGCGCGUGAAAGAGAGAAGUGAACCAGAGAAACACACGUUGUGGUAUAUUACCUGGUA

Variants of: B1
Test: self-cleavage, relative activity (ratio to wild type); higher = more cleavage; co-transcriptional

**Q.** For GUCCUCUUUCACGUGCGCGUGAAAGAGAGAAGUGAACCAGAGAAUCACACGUUGUGGUAGAUUACCUGGUA [A45U U60G], which self-cleavage is on record?
**A.** 0.188

**Q.** For GUCCUCUUUCACGUGCGCGUGAAAGAGAGAAGUGAACCAGAGAAUCACACGUUGUGGUAAAUUACCUGGUA [A45U U60A], which self-cleavage is on record?
**A.** 0.147

**Q.** With GUCCUCUUUCACGUGCGCGUGAAAGAGAGAAGUGAACCAGAGAAAAACAAGUUGUGGUAUAUUACCUGGUA [C46A C50A] as the variant, how does the self-cleavage read?
**A.** 0.117

**Q.** For GUCCUCUUUCACGUGCGCGUGAAAGAGAGAAGUGAACCAGAGAAAAACAGGUUGUGGUAUAUUACCUGGUA [C46A C50G], which self-cleavage is on record?
**A.** 0.159

**Q.** With GUCCUCUUUCACGUGCGCGUGAAAGAGAGAAGUGAACCAGAGAAUCACACGUUGUGGUAUAUUACCUCGUA [A45U G68C] as the variant, how does the self-cleavage read?
**A.** 0.202

**Q.** Which self-cleavage does the source give for GUCCUCUUUCACGUGCGCGUGAAAGAGAGAAGUGAACCAGAGAAUCACACGCUGUGGUAUAUUACCUGGUA [A45U U52C] here?
**A.** 0.103

**Q.** Which self-cleavage does the source give for GUCCUCUUUCACGUGCGCGUGAAAGAGAGAAGUGAACCAGAGAAUCACACGGUGUGGUAUAUUACCUGGUA [A45U U52G] here?
**A.** 0.122

**Q.** For GUCCUCUUUCACGUGCGCGUGAAAGAGAGAAGUGAACCAGAGAAUCACACGUUGUCGUAUAUUACCUGGUA [A45U G56C], which self-cleavage is on record?
**A.** 0.198

**Q.** For GUCCUCUUUCACGUGCGCGUGAAAGAGAGAAGUGAACCAGAGAAAAACACGUUGUGGUAUAUUACCUGGUU [C46A A71U], which self-cleavage is on record?
**A.** 0.161

**Q.** With GUCCUCUUUCACGUGCGCGUGAAAGAGAGAAGUGAACCAGAGAAUCACACGUUGUGGUAUAUUACCUGCUA [A45U G69C] as the variant, how does the self-cleavage read?
**A.** 0.0735

**Q.** For GUCCUCUUUCACGUGCGCGUGAAAGAGAGAAGUGAACCAGAGAAUCACACGUUGUGGUAUAUUACCAGGUA [A45U U67A], which self-cleavage is on record?
**A.** 0.0841

**Q.** Which self-cleavage does the source give for GUCCUCUUUCACGUGCGCGUGAAAGAGAGAAGUGAACCAGAGAAUCACACGUUGUGGUAUAUUAUCUGGUA [A45U C65U] here?
**A.** 0.175

**Q.** For GUCCUCUUUCACGUGCGCGUGAAAGAGAGAAGUGAACCAGAGAAUCACACGUUGUGUUAUAUUACCUGGUA [A45U G57U], which self-cleavage is on record?
**A.** 0.166

**Q.** Which self-cleavage does the source give for GUCCUCUUUCACGUGCGCGUGAAAGAGAGAAGUGAACCAGAGAAUCACACGUUGUGGUGUAUUACCUGGUA [A45U A59G] here?
**A.** 0.0526

**Q.** With GUCCUCUUUCACGUGCGCGUGAAAGAGAGAAGUGAACCAGAGAAUCACACGUUGUGGUUUAUUACCUGGUA [A45U A59U] as the variant, how does the self-cleavage read?
**A.** 0.154

**Q.** Which self-cleavage does the source give for GUCCUCUUUCACGUGCGCGUGAAAGAGAGAAGUGAACCAGAGAAUCACACGUUGUGGUCUAUUACCUGGUA [A45U A59C] here?
**A.** 0.285

**Q.** Which self-cleavage does the source give for GUCCUCUUUCACGUGCGCGUGAAAGAGAGAAGUGAACCAGAGAAUCACUCGUUGUGGUAUAUUACCUGGUA [A45U A49U] here?
**A.** 0.17

**Q.** For GUCCUCUUUCACGUGCGCGUGAAAGAGAGAAGUGAACCAGAGAAUUACACGUUGUGGUAUAUUACCUGGUA [A45U C46U], which self-cleavage is on record?
**A.** 0.12

**Q.** Which self-cleavage does the source give for GUCCUCUUUCACGUGCGCGUGAAAGAGAGAAGUGAACCAGAGAAUCACACGUUGUGGUAUAUUUCCUGGUA [A45U A64U] here?
**A.** 0.0728

**Q.** Which self-cleavage does the source give for GUCCUCUUUCACGUGCGCGUGAAAGAGAGAAGUGAACCAGAGAAUCACACGUUGUGGUAUAUUGCCUGGUA [A45U A64G] here?
**A.** 0.16

**Q.** For GUCCUCUUUCACGUGCGCGUGAAAGAGAGAAGUGAACCAGAGAAUCACACGUUGUGGUAUAUUACCUGGUC [A45U A71C], which self-cleavage is on record?
**A.** 0.286

**Q.** For GUCCUCUUUCACGUGCGCGUGAAAGAGAGAAGUGAACCAGAGAAUCACACGUUGUGGUAUAUUACCUGGUG [A45U A71G], which self-cleavage is on record?
**A.** 0.189

**Q.** Which self-cleavage does the source give for GUCCUCUUUCACGUGCGCGUGAAAGAGAGAAGUGAACCAGAGAAUCACACGUUGUGGUAUAUUACCUGGUU [A45U A71U] here?
**A.** 0.156

**Q.** For GUCCUCUUUCACGUGCGCGUGAAAGAGAGAAGUGAACCAGAGAAUCACACGUAGUGGUAUAUUACCUGGUA [A45U U53A], which self-cleavage is on record?
**A.** 0.151

**Q.** With GUCCUCUUUCACGUGCGCGUGAAAGAGAGAAGUGAACCAGAGAAUCACACGUGGUGGUAUAUUACCUGGUA [A45U U53G] as the variant, how does the self-cleavage read?
**A.** 0.263

**Q.** Which self-cleavage does the source give for GUCCUCUUUCACGUGCGCGUGAAAGAGAGAAGUGAACCAGAGAAUCACACGUUGUGGUAUUUUACCUGGUA [A45U A61U] here?
**A.** 0.122

**Q.** Which self-cleavage does the source give for GUCCUCUUUCACGUGCGCGUGAAAGAGAGAAGUGAACCAGAGAAUCACACGUUGUGGUAUCUUACCUGGUA [A45U A61C] here?
**A.** 0.0246

**Q.** For GUCCUCUUUCACGUGCGCGUGAAAGAGAGAAGUGAACCAGAGAAUCACACGUUGUGGUAUACUACCUGGUA [A45U U62C], which self-cleavage is on record?
**A.** 0.127

**Q.** For GUCCUCUUUCACGUGCGCGUGAAAGAGAGAAGUGAACCAGAGAAAAAGACGUUGUGGUAUAUUACCUGGUA [C46A C48G], which self-cleavage is on record?
**A.** 0.211

**Q.** For GUCCUCUUUCACGUGCGCGUGAAAGAGAGAAGUGAACCAGAGAAAAAUACGUUGUGGUAUAUUACCUGGUA [C46A C48U], which self-cleavage is on record?
**A.** 0.138

**Q.** Which self-cleavage does the source give for GUCCUCUUUCACGUGCGCGUGAAAGAGAGAAGUGAACCAGAGAAAAAAACGUUGUGGUAUAUUACCUGGUA [C46A C48A] here?
**A.** 0.127

**Q.** Which self-cleavage does the source give for GUCCUCUUUCACGUGCGCGUGAAAGAGAGAAGUGAACCAGAGAAAAACACGUUGUGGUAUGUUACCUGGUA [C46A A61G] here?
**A.** 0.0812

**Q.** Which self-cleavage does the source give for GUCCUCUUUCACGUGCGCGUGAAAGAGAGAAGUGAACCAGAGAAAAACACGUUGUGGUAUAUUAUCUGGUA [C46A C65U] here?
**A.** 0.259

**Q.** With GUCCUCUUUCACGUGCGCGUGAAAGAGAGAAGUGAACCAGAGAAUCACAUGUUGUGGUAUAUUACCUGGUA [A45U C50U] as the variant, how does the self-cleavage read?
**A.** 0.123

**Q.** With GUCCUCUUUCACGUGCGCGUGAAAGAGAGAAGUGAACCAGAGAAAAACGCGUUGUGGUAUAUUACCUGGUA [C46A A49G] as the variant, how does the self-cleavage read?
**A.** 0.0498

**Q.** Which self-cleavage does the source give for GUCCUCUUUCACGUGCGCGUGAAAGAGAGAAGUGAACCAGAGAAAAACUCGUUGUGGUAUAUUACCUGGUA [C46A A49U] here?
**A.** 0.149

**Q.** For GUCCUCUUUCACGUGCGCGUGAAAGAGAGAAGUGAACCAGAGAAUCAGACGUUGUGGUAUAUUACCUGGUA [A45U C48G], which self-cleavage is on record?
**A.** 0.14

**Q.** Which self-cleavage does the source give for GUCCUCUUUCACGUGCGCGUGAAAGAGAGAAGUGAACCAGAGAAUCACACUUUGUGGUAUAUUACCUGGUA [A45U G51U] here?
**A.** 0.209
